Test results published in article PMC7800377, “A molecular mechanism for LINC complex branching by structurally diverse SUN-KASH 6:6 assemblies” (eLife, 2021).

T1: GCN4-SUN2 C705A (His6-GCN4 fusion of SUN2 522–717 C705A) (human, UniProt Q9UH99 522-717, C705A)
T1 construct: SUN2, human, SUN domain, residues 522-717, C705A; The GCN4 tag is a trimerising tag (Sosa et al., 2012); not shown: His6, N-terminal, kept; GCN4, N-terminal, kept
T1 sequence (looked up): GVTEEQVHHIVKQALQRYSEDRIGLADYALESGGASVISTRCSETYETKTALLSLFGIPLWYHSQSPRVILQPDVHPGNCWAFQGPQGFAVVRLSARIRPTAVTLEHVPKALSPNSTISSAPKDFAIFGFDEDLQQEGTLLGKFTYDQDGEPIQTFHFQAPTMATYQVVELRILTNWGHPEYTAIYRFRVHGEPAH

B1: GCN4-SUN1 (His6-GCN4 fusion of the SUN domain of human SUN1, residues 616–812), wild-type (domain or fragment)
chain: GITEAQARAIVNSALKLYSQDKTGMVDFALESGGGSILSTRCSETYETKTALMSLFGIPLWYFSQSPRVVIQPDIYPGNCWAFKGSQGYLVVRLSMMIHPAAFTLEHIPKTLSPTGNISSAPKDFAVYGLENEYQEEGQLLGQFTYDQDGESLQMFQALKRPDDTAFQIVELRIFSNWGHPEYTCLYRFRVHGEPVK
B2: GCN4-SUN2 (His6-GCN4 fusion of the SUN domain of human SUN2, residues 522–717), wild-type (domain or fragment, UniProt Q9UH99 522-717, looked up)
chain: GVTEEQVHHIVKQALQRYSEDRIGLADYALESGGASVISTRCSETYETKTALLSLFGIPLWYHSQSPRVILQPDVHPGNCWAFQGPQGFAVVRLSARIRPTAVTLEHVPKALSPNSTISSAPKDFAIFGFDEDLQQEGTLLGKFTYDQDGEPIQTFHFQAPTMATYQVVELRILTNWGHPEYTCIYRFRVHGEPAH
notes: SUN2, human, SUN domain, residues 522-717; The GCN4 tag is a trimerising tag (Sosa et al., 2012); not shown: His6, N-terminal, kept; GCN4, N-terminal, kept

What was measured:
[1] = molecular target: B1; assay: SEC-MALS; co-expressed and co-purified samples at >1 mg/ml on Superdex 200 Increase 10/300 GL in 20 mM Tris pH 8.0, 150 mM KCl, 2 mM DTT; conditions: both partners purified
[2] = molecular target: the molecule itself; assay: as above
[3] = molecular target: the molecule itself; assay: not stated; unpublished findings (Gurusaran and Davies)
[4] = molecular target: B2; assay: SEC-MALS; co-expressed and co-purified samples at >1 mg/ml on Superdex 200 Increase 10/300 GL in 20 mM Tris pH 8.0, 150 mM KCl, 2 mM DTT; conditions: both partners purified
[5] = molecular target: T1, GCN4-SUN2 C705A (His6-GCN4 fusion of …); assay: as above; conditions: both partners purified

| Binder | stoichiometry N [1] | stoichiometry N [2] | also measured |
| --- | --- | --- | --- |
| GPSPPPTWPHLQLCYLQPPPV (domain or fragment, UniProt Q8N6L0 542-562, looked up, KASH5, human, C-terminal KASH domain, residues 542-562) [MBP-KASH5 (His6-MBP fusion of the KASH domain of human KASH5, residues 542–562)] | 1 binder:target ratio (6:6) | – | – |
| B1 | – | 3 | – |
| B2 | – | 3 | – |
| KASH5 (construct not told; unpublished findings) (natural protein, human, UniProt Q8N6L0 1-562, looked up, KASH5, human; Told only as 'KASH5 is dimeric (Gurusaran and Davies, unpublished findings)') MDLPEGPVGGPTAEMYLRERPEEARLGMPVSLEEQILNSTFEACDPQRTGTVAVAQVLAYLEAVTGQGPQDARLQTLANSLDPNGEGPKATVDLDTFLVVMRDWIAACQLHGGLELEEETAFQGALTSRQLPSGCPEAEEPANLESFGGEDPRPELQATADLLSSLEDLELSNRRLVGENAKLQRSMETAEEGSARLGEEILALRKQLHSTQQALQFAKAMDEELEDLKTLARSLEEQNRSLLAQARQAEKEQQHLVAEMETLQEENGKLLAERDGVKKRSQELAMEKDTLKRQLFECEHLICQRDTILSERTRDVESLAQTLEEYRVTTQELRLEISRLEEQLSQTYEGPDELPEGAQLRRVGWTELLPPSLGLEIEAIRQKQEVATADLSNPLCGVWQWEEVIHETSEETEFPSEAPAGGQRNFQGEPAHPEEGRKEPSMWLTRREEEEDAESQVTADLPVPLGAPRPGDIPENPPERPARRELQQALVPVMKKLVPVRRRAWGQLCLPPQRLRVTRHPLIPAPVLGLLLLLLLSVLLLGPSPPPTWPHLQLCYLQPPPV | – | – | stoichiometry N [3]: 2 |
| ASGGPCCSHARIPRTPYLVLSYVNGLPPV (domain or fragment, UniProt Q8N205 376-404, looked up, Nesprin-4, human, C-terminal KASH domain, residues 376-404) [MBP-KASH4 (His6-MBP fusion of the KASH domain of human Nesprin-4, residues 376–404)] | 1 binder:target ratio (6:6) | – | stoichiometry N [4]: 1 binder:target ratio (6:6) |
| MBP-KASH1 (His6-MBP fusion of the KASH domain of human Nesprin-1, residues 8769–8797) (domain or fragment, Nesprin-1, human, C-terminal KASH domain, residues 8769-8797) not shown | 1 binder:target ratio (6:6) | – | stoichiometry N [5]: 1 binder:target ratio (6:6) |
